Source: paper PMC2714540

Target: Smurf1 (UniProt Q9HCE7)
Assay: binding to Smurf1, pull-down format inferred
Details: reference: Tal210-605 wild type; sites S425

binding against the reference: stronger
Substance: talin (talin head, TH) 210-605 (from UniProt P26039) Tal210-605 S425A
